Assay results from US6555522B1, “Peptides and other small molecules derived from regions of interacting proteins and uses thereof” (Mount Sinai School of Medicine of the City of New York, priority 1998, dated 2003).
“Also recorded” adds a separate entry of the source. Ends that are not written are not given here.

Key:
[1] = biological target: T1, phospholipase C-β2 (PLC-β2) (Homo sapiens, UniProt Q00722); assay: PLC assay, [3H]PIP2 hydrolysis by recombinant PLC-β2; assay type: biochemical; details: for stimulation of PLC-β2 activity by peptide itself (in words): basal, no Gβγ unless stated, short peptides at 100 μM; for affinity of PLC-β2 stimulation compared with parent or comparator peptide (in words) / maximal stimulation / efficacy on PLC-β2 (in words): concentration-effect curves; for effect on Gβγ stimulation of PLC-β2 (in words): Gβγ 100 nM
T1 construct: made in house; host or cells: High 5 insect cells (baculovirus); cytosolic fraction used, not purified
T1 sequence (Q00722 whole entry): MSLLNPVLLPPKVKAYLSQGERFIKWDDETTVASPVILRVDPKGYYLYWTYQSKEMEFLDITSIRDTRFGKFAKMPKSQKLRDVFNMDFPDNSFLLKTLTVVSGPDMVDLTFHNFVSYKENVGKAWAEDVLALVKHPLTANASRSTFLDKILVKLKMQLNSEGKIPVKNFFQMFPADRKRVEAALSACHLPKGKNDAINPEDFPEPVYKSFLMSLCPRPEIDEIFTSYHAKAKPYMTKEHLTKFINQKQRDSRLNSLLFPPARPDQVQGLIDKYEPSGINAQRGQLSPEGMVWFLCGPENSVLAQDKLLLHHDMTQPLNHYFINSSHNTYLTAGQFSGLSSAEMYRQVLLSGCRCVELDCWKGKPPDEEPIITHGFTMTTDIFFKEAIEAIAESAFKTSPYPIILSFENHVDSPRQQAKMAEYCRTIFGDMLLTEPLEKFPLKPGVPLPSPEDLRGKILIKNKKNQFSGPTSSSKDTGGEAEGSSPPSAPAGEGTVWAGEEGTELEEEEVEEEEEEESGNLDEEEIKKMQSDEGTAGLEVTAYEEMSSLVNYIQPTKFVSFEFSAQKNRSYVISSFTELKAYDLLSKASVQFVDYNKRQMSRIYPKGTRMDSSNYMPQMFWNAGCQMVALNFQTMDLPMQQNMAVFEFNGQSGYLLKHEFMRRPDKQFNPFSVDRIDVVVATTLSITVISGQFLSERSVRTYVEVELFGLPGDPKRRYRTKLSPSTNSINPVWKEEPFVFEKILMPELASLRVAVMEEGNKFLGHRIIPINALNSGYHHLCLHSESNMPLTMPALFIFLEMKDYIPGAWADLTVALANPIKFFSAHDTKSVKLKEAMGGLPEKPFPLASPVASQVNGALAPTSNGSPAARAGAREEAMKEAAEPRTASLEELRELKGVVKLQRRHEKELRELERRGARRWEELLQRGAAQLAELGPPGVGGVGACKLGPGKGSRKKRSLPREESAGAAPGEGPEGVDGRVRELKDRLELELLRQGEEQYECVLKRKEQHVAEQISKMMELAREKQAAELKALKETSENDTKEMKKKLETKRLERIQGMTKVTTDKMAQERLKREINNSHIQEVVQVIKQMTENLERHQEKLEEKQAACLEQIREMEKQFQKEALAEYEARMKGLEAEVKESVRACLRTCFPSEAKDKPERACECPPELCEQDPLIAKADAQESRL
Protocol: Recombinant PLC-β2 was expressed in High 5 cells by infection with recombinant baculovirus. Three to four days after infection, the cells were lysed by par bombing to 600 psi. The lysate was then centrifuged, and the cytosolic fraction was collected. Approximately 10-15 μg of cytosolic fraction was used per 100 μl reaction volume. Phospholipid substrate is a mixture of [3H]PIP2 and unlabeled phospholipids. Unlabeled phospholipids, from Sigma (P-6023), are crude phospholipids from bovine brain. The total diphosphoinositide and triphosphoinositide content is 20-40%. The remainder is a mixture of phosphotidylinositol and phosphotidylserine. Phospholipids are sonicated in 10 mM Hepes pH 7.0 to form micelles. A total of 0.01 μCi of [3H]PIP2, corresponding to approximately 7000 cpm, and 5 μg of unlabeled mixed phospholipids are used per reaction.
The PLC assay was performed as previously described (De Vivo, 1994, Meth. Enzymol. 238, 131). Briefly, substrate, PLC-β2, peptide, and Gβγ subunits are mixed on ice in a 100 μl volume buffer containing 10 mM Hepes pH 7.0, 1 mM DTT, 100 mM KCl, 10 mM NaCl, 2 mM EGTA, 1 mM EDTA, and 1 mM MgCl2. Reactions are started by the addition of 25 μl 5 mM CaCl2 and incubated at 32 degrees C. for 15 minutes. Reactions are stopped by the addition of 1 ml CMH (chloroform:methanol:H2O=100:100:1 by volume) and 250 μl 10 mM EDTA. After extraction, 400 μl aqueous phase is counted using a Beckman scintillation counter. All experiments were repeated at least thrice with very similar results. For concentration-effect curves, typical experiments are shown.

adenylyl cyclase 1 (AC1) = biological target: T2, adenylyl cyclase 1 (AC1) (Bos taurus, UniProt P19754); assay: Adenylyl cyclase assay, recombinant AC1 in Sf9 cell membranes; assay type: biochemical, bovine; details: for inhibition of Ca2+/CaM-stimulated AC1 activity by peptide alone (in words): CaM 100 nM; for blockade of Gβγ inhibition of Ca2+/CaM-stimulated AC1: CaM 100 nM plus Gβγ 30 nM
T2 construct: made in house; host or cells: Sf9 cells (baculovirus); membranes used
T2 sequence (P19754 whole entry): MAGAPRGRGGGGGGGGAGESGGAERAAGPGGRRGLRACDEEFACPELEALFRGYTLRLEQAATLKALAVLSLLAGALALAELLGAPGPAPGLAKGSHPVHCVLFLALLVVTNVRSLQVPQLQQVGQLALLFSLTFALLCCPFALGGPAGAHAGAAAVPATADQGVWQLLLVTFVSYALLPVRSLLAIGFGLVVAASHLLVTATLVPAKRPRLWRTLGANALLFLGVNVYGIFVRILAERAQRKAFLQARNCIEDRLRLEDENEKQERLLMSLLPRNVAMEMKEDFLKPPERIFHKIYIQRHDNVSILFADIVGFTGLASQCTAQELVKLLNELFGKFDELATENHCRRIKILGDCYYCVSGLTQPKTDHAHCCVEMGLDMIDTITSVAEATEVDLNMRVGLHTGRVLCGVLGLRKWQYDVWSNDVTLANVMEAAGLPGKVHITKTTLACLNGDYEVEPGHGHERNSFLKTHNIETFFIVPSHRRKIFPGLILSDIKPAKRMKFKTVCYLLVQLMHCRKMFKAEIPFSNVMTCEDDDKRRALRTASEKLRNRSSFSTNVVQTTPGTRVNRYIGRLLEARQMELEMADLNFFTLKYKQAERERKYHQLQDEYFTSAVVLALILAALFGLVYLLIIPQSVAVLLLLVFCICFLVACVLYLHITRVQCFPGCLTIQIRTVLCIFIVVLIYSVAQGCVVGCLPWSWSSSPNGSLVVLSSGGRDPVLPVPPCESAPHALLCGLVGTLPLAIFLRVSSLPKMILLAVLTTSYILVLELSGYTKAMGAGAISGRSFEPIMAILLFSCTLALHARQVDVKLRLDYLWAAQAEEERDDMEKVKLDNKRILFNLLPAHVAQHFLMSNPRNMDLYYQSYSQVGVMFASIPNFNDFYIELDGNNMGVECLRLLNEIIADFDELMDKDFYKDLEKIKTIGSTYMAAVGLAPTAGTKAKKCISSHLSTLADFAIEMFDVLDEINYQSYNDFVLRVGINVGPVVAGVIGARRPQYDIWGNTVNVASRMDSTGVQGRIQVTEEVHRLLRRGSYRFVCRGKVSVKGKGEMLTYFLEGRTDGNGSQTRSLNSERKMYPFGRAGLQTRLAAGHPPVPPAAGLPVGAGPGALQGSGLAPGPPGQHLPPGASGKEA
Source text: (§1) Expression of G-Protein Subunits And Adenylyl Cyclases. Gβγ was purified from bovine brain (Dingus et al., 1994, Meth. Enzymol. 237, 457-471). Q227L-Gαs was expressed in rabbit reticulocyte lysates. AC2 was expressed in Sf9 cells by infection with recombinant baculovirus (Jacobowitz and Iyengar, 1994, Proc. Natl. Acad. Sci. U.S.A. 91, 10630-10634). AC2 assays have been described (Chen et al., 1995, Science 268, 1166-1169). Bovine AC1 (Jacobowitz et al., 1993, J. Biol. Chem. 268, 3829-3832) was epitope tagged at the N terminus with the FLAG epitope (Jacobowitz and Iyengar, 1994, Proc. Natl. Acad. Sci. U.S.A. 91, 10630-10634) and expressed in Sf9 cells by baculovirus infection.
(§2) Adenylyl Cyclase Assays. AC2 assays have been described (Chen et al., 1995, Science 268, 1166-1169). When required the peptides were mixed with adenylyl cyclase containing membranes and held on ice for 10 min prior to assays. Approximately 1-4 μg of AC2 Sf9 cell membranes per assay tube was used. All assays contained a mixture of protease inhibitors. The final concentration of each inhibitor was leupeptin at 3.2 μg/ml, aprotinin at 2 μg/ml, phenanthroline at 1.0 mM, and phenylmethylsulfonyl fluoride at 1.0 mM. To study Gβγ inhibition, AC1-containing Sf9 cell membranes (1-4 μg per assay tube) was used. In these assays, in addition to the other standard reagents, the assay mixture contained either 1 mM EGTA or 50 μM CaCl2 plus 100 nM calmodulin (CaM). All experiments were repeated two or more times with qualitatively similar results. Typical experiments are shown. Values are mean±SD of triplicate determinations.

adenylyl cyclase 2 (AC2) = biological target: T3, adenylyl cyclase 2 (AC2) (Rattus norvegicus, UniProt P26769); assay: Adenylyl cyclase assay, recombinant AC2 in Sf9 cell membranes; assay type: biochemical; details: αs* 2 nM plus Gβγ 50 nM; TTN at 100 μM
T3 construct: made in house; host or cells: Sf9 cells (baculovirus); membranes used
T3 sequence (P26769 whole entry): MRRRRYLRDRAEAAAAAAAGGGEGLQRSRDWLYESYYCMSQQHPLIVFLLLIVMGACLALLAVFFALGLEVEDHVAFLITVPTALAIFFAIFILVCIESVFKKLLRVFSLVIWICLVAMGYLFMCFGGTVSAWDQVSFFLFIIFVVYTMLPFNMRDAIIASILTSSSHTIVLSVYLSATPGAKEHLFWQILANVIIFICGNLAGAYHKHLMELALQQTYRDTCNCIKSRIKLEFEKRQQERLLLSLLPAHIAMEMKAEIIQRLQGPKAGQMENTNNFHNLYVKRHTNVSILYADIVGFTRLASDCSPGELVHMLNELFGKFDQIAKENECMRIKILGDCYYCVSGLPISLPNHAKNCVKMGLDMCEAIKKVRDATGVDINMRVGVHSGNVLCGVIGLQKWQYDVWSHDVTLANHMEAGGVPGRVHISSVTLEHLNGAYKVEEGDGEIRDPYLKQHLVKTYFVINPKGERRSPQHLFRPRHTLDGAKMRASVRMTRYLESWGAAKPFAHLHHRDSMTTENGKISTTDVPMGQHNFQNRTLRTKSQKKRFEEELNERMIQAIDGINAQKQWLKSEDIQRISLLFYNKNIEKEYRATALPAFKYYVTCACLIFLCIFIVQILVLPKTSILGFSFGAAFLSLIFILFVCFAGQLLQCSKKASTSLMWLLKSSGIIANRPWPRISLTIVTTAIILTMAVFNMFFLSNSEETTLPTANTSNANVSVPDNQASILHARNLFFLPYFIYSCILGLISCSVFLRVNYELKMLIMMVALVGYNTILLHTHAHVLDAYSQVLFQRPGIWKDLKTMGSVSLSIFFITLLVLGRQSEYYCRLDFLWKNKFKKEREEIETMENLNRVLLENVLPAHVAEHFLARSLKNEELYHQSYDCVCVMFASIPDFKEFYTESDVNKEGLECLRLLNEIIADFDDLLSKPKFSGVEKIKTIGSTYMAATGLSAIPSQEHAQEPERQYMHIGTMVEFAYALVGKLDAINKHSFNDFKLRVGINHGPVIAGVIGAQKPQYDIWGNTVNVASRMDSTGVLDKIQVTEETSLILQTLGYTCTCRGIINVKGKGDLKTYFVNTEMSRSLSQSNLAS
Source text: as §1
as §2, with “In these assays, in addition to the other standard reagents, the assay mixture contained either 1 mM EGTA or 50 μM CaCl2 plus 100 nM calmodulin (CaM). All experiments were repeated two or more times with qualitatively similar results. Typical experiments are shown. Values are mean±SD of triplicate determinations.” left out

PLC-β2 = biological target: T4, PLC-β2 (Homo sapiens, UniProt Q00722); assay: Fluorescent resonance energy transfer binding of DABMI-labeled peptide to Cascade Blue-labeled PLC-β2; details: FRET
T4 construct: made in house; host or cells: Sf9 cells; purified as in Runnel et al. 1996
T4 sequence (Q00722 whole entry): as the sequence (Q00722 whole entry) above
Protocol: For fluorescent resonance energy transfer experiments, recombinant PLC-β2 was expressed in Sf9 cells and purified as described (Runnel et al., 1996, Biochem. 35, 16824) and labeled with the amine-reactive probe, Cascade Blue acetyl azide (Molecular Probes, Eugene Oreg.) by raising the pH to 8.0 and adding a 4-fold excess of probe from a freshly prepared concentrated DMF solution. The reaction was kept on ice for 30 minutes before extensive dialysis in a solution comprising 20 mM Hepes, 0.16 M NaCl, 1 mM DTT, pH 7.2 to remove excess probe. Peptides were labeled with DABMI (4-dimethyl-5aminophenylazophenyl-4′-maleimeide) using an equimolar amount of dye in the absence of reducing agents. The reaction was allowed to proceed for 30 minutes at room temperature before quenching with 5 mM DTT. The final labeling ratios, as determined by absorption, were 1:1 for CB-PLC-β2 and 0.8 for the two DABMI-peptides. Fluorescence spectra were taken on an ISS-PCL (ISS Champaign, Ill.) photon counting spectrofluorometer using a 3×3 mm cuvette and exciting at 380 nm and scanning from 400-560 nm.

Substance	stimulation of PLC-β2 activity by peptide itself (in words) [1]	affinity of PLC-β2 stimulation compared with parent or comparator peptide (in words) [1]	further results
FLLT: unrelated peptide encoding region 660-688 of adenylyl cyclase 6, same overall charge as Gβ86-105 (KYSRKVDPRFGAYVACALLVFCFICFIQL; UniProt O43306 660-688, looked up, fragment) [reference compound]	no measurable effects		
Gβ89-101: thirteen amino acid peptide encoding Gβ residues 89-101 (SEQ ID NO:7) (KVHAIPLRSSWVM; listed as Homo sapiens)	did stimulate		
Gβ96-98: three amino acid peptide encoding Gβ residues 96-98 (RSS)	did not stimulate		
Gβ96-101: six amino acid peptide encoding Gβ residues 96-101 (SEQ ID NO:8) (RSSWVM; listed as Homo sapiens)	did stimulate	considerably lower affinity	
H91A: Gβ86-105 peptide with H91A substitution (TTNKVAAIPLRSSWVMTCAY)		decreased the affinity	maximal stimulation / efficacy on PLC-β2 (in words) [1]: did not affect maximal stimulation
K89A, H91A, and R96A triple substituted peptide: Gβ86-105 peptide with K89, H91 and R96 substituted simultaneously (TTNAVAAIPLASSWVMTCAY; UniProt P62873 86-105, looked up, variant K89A H91A R96A)	did not stimulate		effect on Gβγ stimulation of PLC-β2 (in words) [1]: did not affect
K89A: Gβ86-105 peptide with K89A substitution (TTNAVHAIPLRSSWVMTCAY)		decreased the affinity	maximal stimulation / efficacy on PLC-β2 (in words) [1]: did not affect maximal stimulation
R96A: Gβ86-105 peptide with R96A substitution (TTNKVHAIPLASSWVMTCAY)		decreased the affinity; also recorded: large shift in affinity	maximal stimulation / efficacy on PLC-β2 (in words) [1]: did not affect maximal stimulation
S97,98R Gβ86-105 peptide: Gβ86-105 peptide with both serines 97 and 98 substituted with arginine (TTNKVHAIPLRRRWVMTCAY)			increase in affinity of PLC-β2 stimulation versus Gβ86-105 peptide ([1]; substituted Gβ86-105 peptides): five-fold increase
S97, 98C: Gβ86-105 peptide with serines 97 and 98 substituted with cysteine (TTNKVHAIPLRCCWVMTCAY)		greatly reduced affinity	
S97, 98D Gβ96-101: six amino acid Gβ96-101 peptide with serines 97 and 98 substituted with Asp (RDDWVM)	did not stimulate		
S97, 98D: Gβ86-105 peptide with serines 97 and 98 substituted (D per FIG. 7C legend; text says asparagine) (TTNKVHAIPLRDDWVMTCAY; not fully specified)	inactive		
S97R substituted peptide: six amino acid Gβ96-101 peptide with arginine at position 97 (SEQ ID NO:10) (RRSWVM; listed as Homo sapiens)		increase affinity; also recorded: higher affinity	
S98R Gβ96-101: six amino acid Gβ96-101 peptide with arginine substituted at position 98 (RSRWVM; UniProt P62873 96-101, looked up, variant S98R)		increase affinity	
m-GGL: Gβ115-135 peptide with Tyr-124 converted to Val (GGLDNICSIVNLKTREGNVRV)			inhibition of Ca2+/CaM-stimulated AC1 activity by peptide alone (in words) (adenylyl cyclase 1 (AC1)): did not inhibit the AC1 activity as extensively; blockade of Gβγ inhibition of Ca2+/CaM-stimulated AC1 (adenylyl cyclase 1 (AC1)): no effect; effect on Gβγ stimulation of PLC-β2 (in words) [1]: inactive; inhibition of Gβγ-stimulated AC2 activity (adenylyl cyclase 2 (AC2)): less effective
m-TTN: Gβ86-105 peptide with Met-101 substituted by Asn (TTNKVHAIPLRSSWVNTCAY)	not capable of activating		inhibition of Ca2+/CaM-stimulated AC1 activity by peptide alone (in words) (adenylyl cyclase 1 (AC1)): greatly reduced capacity to inhibit; blockade of Gβγ inhibition of Ca2+/CaM-stimulated AC1 (adenylyl cyclase 1 (AC1)): did not affect; inhibition of Gβγ-stimulated AC2 activity (adenylyl cyclase 2 (AC2)): much less efficacious; binding to PLC-β2 (in words) (PLC-β2): did not display measurable binding
